# In patent US20260274955A1 (JANUX THERAPEUTICS, published 2026):
# Experiments:
# [1] = target: anti-CD28 Fab (SEQ ID NOs: 202, 203); test: phage ELISA, Fab on plate;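 further: ELISA of crude clonal phage supernatants on the plate, wells preloaded with CD28 antigen or only blocking buffer, captured phage read out via HRP-linked anti-M13 antibody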
# Target sequence in this assay (VH, as listed by the source, chain 1 of 2): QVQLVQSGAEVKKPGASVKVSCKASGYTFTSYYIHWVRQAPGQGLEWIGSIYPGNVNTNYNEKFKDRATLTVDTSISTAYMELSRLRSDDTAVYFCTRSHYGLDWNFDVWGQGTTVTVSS
# Target sequence in this assay (VL, as listed by the source, chain 2 of 2): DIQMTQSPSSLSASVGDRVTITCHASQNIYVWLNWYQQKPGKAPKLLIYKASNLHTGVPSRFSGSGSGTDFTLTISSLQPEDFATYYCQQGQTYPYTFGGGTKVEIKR
# Procedure: After panning, phage infected bacteria were plated out and colonies picked into 96 well blocks. Clonal phage was then amplified and separated from bacterial cells via centrifugation.
# Clonal phage were harvested as crude supernatants and screened via standard ELISAs. […] Prior to the addition of clonal phage, wells were incubated with blocking buffer and CD28 antigen or blocking buffer alone. Without washing or aspirating, clonal phage supernatants were then added to the wells and incubated for a short time. Wells were then washed followed by detection of bound phage using a horse radish conjugated anti-M13 antibody. Clonal phage of interest were then sent for sequence analysis.
# [2] = target: T1, anti-CD28 Fab (SEQ ID NOs: 202, 203); test: phage ELISA on captured Fab, wells pre-incubated with CD28 antigen (competitor);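 further: clonal phage ELISA with wells pretreated with CD28 plus blocking buffer before phage addition, bound phage detected by HRP-linked anti-M13 antibody, reference wells got blocking buffer only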
# T1 construct: biotinylated and captured on neutravidin coated plates in the phage ELISA
# T1 sequence (VH, as listed by the source, chain 1 of 2): as the sequence (VH, as listed by the source, chain 1 of 2) above
# T1 sequence (VL, as listed by the source, chain 2 of 2): as the sequence (VL, as listed by the source, chain 2 of 2) above
# Procedure: (§1) Clonal phage were harvested as crude supernatants and screened via standard ELISAs. […] Prior to the addition of clonal phage, wells were incubated with blocking buffer and CD28 antigen or blocking buffer alone. Without washing or aspirating, clonal phage supernatants were then added to the wells and incubated for a short time. Wells were then washed followed by detection of bound phage using a horse radish conjugated anti-M13 antibody.
# [3] = target: T1, anti-CD28 Fab (SEQ ID NOs: 202, 203); test: phage ELISA on captured Fab;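 further: ELISA with clonal phage supernatants added to wells preincubated with CD28 antigen or with blocking buffer only, bound phage detected by HRP-conjugated anti-M13 antibody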
# Procedure: as §1
# [4] = target: T2, anti-CD28 Fab (SEQ ID NOs: 202, 203); test: phage binding ELISA; Fab wells pre-incubated with CD28 antigen (competitor);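 further: clonal phage supernatants added to wells preincubated with CD28 antigen in blocking buffer versus blocking buffer alone, washed, bound phage read by HRP-conjugated anti-M13 antibody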
# T2 construct: biotinylated and captured on neutravidin coated plates in the phage ELISA
# T2 sequence (VH, as listed by the source, chain 1 of 2): as the sequence (VH, as listed by the source, chain 1 of 2) above
# T2 sequence (VL, as listed by the source, chain 2 of 2): as the sequence (VL, as listed by the source, chain 2 of 2) above
# Procedure: as §1
# [5] = target: T2, anti-CD28 Fab (SEQ ID NOs: 202, 203); test: phage binding ELISA; biotinylated Fab on neutravidin plate;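 further: clonal phage supernatants added to Fab wells pretreated with CD28 antigen or with blocking buffer only, bound phage read out via HRP-linked anti-M13 antibody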
# Procedure: as §1
binder,measurement,setting,value
GCAAGASYPWPACL [Phage-1135],Anti-CD28 Fab signal,[1],1.41
SCTAGFRIHWPMCF [Phage-1212],Anti-CD28 Fab signal,[1],1.06
TCAAGATWTWPTCM [Phage-1208],Anti-CD28 Fab signal,[1],1.07
TCAAGASWNWPACE [Phage-1138],Anti-CD28 Fab signal,[1],1.41
WCSEVFSYPWPACL [Phage-1218],Anti-CD28 Fab signal,[1],0.99
"YCQGHIEPYLAKCL (on phage, pIII fusion) [Phage-586]",Anti-CD28 Fab signal in the presence of CD28,[2],0.05
same,"Anti-CD28 Fab (SEQ ID NOs: 202, 203) signal",[3],1.46
TCSAGATYTWPVCF [Phage-1201],Anti-CD28 Fab signal,[1],1.13
TCAAGATYSWPSCF [Phage-1204],Anti-CD28 Fab signal,[1],1.1
TCSAGATYSWPLCF [Phage-1203],Anti-CD28 Fab signal,[1],1.12
"YCEGHLAIYQKKCL (on phage, pIII fusion) [Phage-592]",Anti-CD28 Fab signal in the presence of CD28,[2],0.06
same,"Anti-CD28 Fab (SEQ ID NOs: 202, 203) signal",[3],1.44
"YCDGHLAIYMWKCL (on phage, pIII fusion) [Phage-587]",Anti-CD28 Fab signal in the presence of CD28,[2],0.09
same,"Anti-CD28 Fab (SEQ ID NOs: 202, 203) signal",[3],1.45
SCAAGFHYEWPQCF [Phage-1211],Anti-CD28 Fab signal,[1],1.06
SCSAGASLQLSQCF [Phage-1129],Anti-CD28 Fab signal,[1],1.41
TCSAGAHYEWPKCL [Phage-1202],Anti-CD28 Fab signal,[1],1.12
TCAAGATYNWPWCF [Phage-1207],Anti-CD28 Fab signal,[1],1.07
SCAAVFSFNWPECF [Phage-1216],Anti-CD28 Fab signal,[1],1.01
"YCEGHLPQYMTKCI (on phage, pIII fusion) [Phage-590]",Anti-CD28 Fab signal in the presence of CD28,[2],0.08
same,"Anti-CD28 Fab (SEQ ID NOs: 202, 203) signal",[3],1.44
"YCDGHLALHMKKCL (on phage, pIII fusion) [Phage-569]",Anti-CD28 Fab signal in the presence of CD28,[2],0.08
same,"Anti-CD28 Fab (SEQ ID NOs: 202, 203) signal",[3],1.49
PCAAGAQWSWPMCL [Phage-1209],Anti-CD28 Fab signal,[1],1.07
SCAAGAAYAWPWCL [Phage-1213],Anti-CD28 Fab signal,[1],1.05
"YCDGHLPEYMNQCL (on phage, pIII fusion) [Phage-597]",Anti-CD28 Fab signal in the presence of CD28,[2],0.07
same,"Anti-CD28 Fab (SEQ ID NOs: 202, 203) signal",[3],1.44
YCDGHLKEYMAKCL [Phage-314],Anti-CD28 Fab signal in the presence of CD28,[4],0.07
same,"Anti-CD28 Fab (SEQ ID NOs: 202, 203) signal",[5],1.9
YCDGHAIEYMAKCL [Phage-446],Anti-CD28 Fab signal in the presence of CD28,[4],0.08
same,"Anti-CD28 Fab (SEQ ID NOs: 202, 203) signal",[5],1.69
YCDGHLSEYMFKCL [Phage-371],Anti-CD28 Fab signal in the presence of CD28,[4],0.1
same,"Anti-CD28 Fab (SEQ ID NOs: 202, 203) signal",[5],1.79
YCDGHRPEYMEKCL [Phage-315],Anti-CD28 Fab signal in the presence of CD28,[4],0.06
same,"Anti-CD28 Fab (SEQ ID NOs: 202, 203) signal",[5],1.9
"YCDGHLPIYQAKCL (on phage, pIII fusion) [Phage-571]",Anti-CD28 Fab signal in the presence of CD28,[2],0.1
same,"Anti-CD28 Fab (SEQ ID NOs: 202, 203) signal",[3],1.49
TCSAGATYSWPACL [Phage-1137],Anti-CD28 Fab signal,[1],1.41
SCAAGSTWAWPACL [Phage-1210],Anti-CD28 Fab signal,[1],1.07
LCDQFFHYNWPACL [Phage-1215],Anti-CD28 Fab signal,[1],1.04
MCAAGAAWAWPLCL [Phage-1141],Anti-CD28 Fab signal,[1],1.4
YCAGHLPQYIAKCL [Phage-313],Anti-CD28 Fab signal in the presence of CD28,[4],0.09
same,"Anti-CD28 Fab (SEQ ID NOs: 202, 203) signal",[5],1.9
TCAAGAHYEWPQCF [Phage-1206],Anti-CD28 Fab signal,[1],1.08
TCSAGASYSWPYCM [Phage-1217],Anti-CD28 Fab signal,[1],1
QCAAGATYPWPVCL [Phage-1200],Anti-CD28 Fab signal,[1],1.13
TCAAGASYPWPLCV [Phage-1142],Anti-CD28 Fab signal,[1],1.4
"YCEGHSQEYMAKCL (on phage, pIII fusion) [Phage-596]",Anti-CD28 Fab signal in the presence of CD28,[2],0.06
same,"Anti-CD28 Fab (SEQ ID NOs: 202, 203) signal",[3],1.44
LCSAGFLFQWSTCL [Phage-1133],Anti-CD28 Fab signal,[1],1.41
"YCDGHNFQYMEKCL (on phage, pIII fusion) [Phage-598]",Anti-CD28 Fab signal in the presence of CD28,[2],0.06
same,"Anti-CD28 Fab (SEQ ID NOs: 202, 203) signal",[3],1.44
SCTAVFSYALSPCF [Phage-1219],Anti-CD28 Fab signal,[1],0.99
"YCDGHHKEYLLKCL (on phage, pIII fusion) [Phage-568]",Anti-CD28 Fab signal in the presence of CD28,[2],0.06
same,"Anti-CD28 Fab (SEQ ID NOs: 202, 203) signal",[3],1.49
"YCAGHLPQYIQKCL (on phage, pIII fusion) [Phage-591]",Anti-CD28 Fab signal in the presence of CD28,[2],0.07
same,"Anti-CD28 Fab (SEQ ID NOs: 202, 203) signal",[3],1.44
TCAAGAQFAWPLCL [Phage-1132],Anti-CD28 Fab signal,[1],1.41
TCAAGANYAWPVCL [Phage-1205],Anti-CD28 Fab signal,[1],1.09
YCDGHLPEYMGKCL [Phage-316],Anti-CD28 Fab signal in the presence of CD28,[4],0.11
same,"Anti-CD28 Fab (SEQ ID NOs: 202, 203) signal",[5],1.89
YCEGHSPEYMWKCL [Phage-321],Anti-CD28 Fab signal in the presence of CD28,[4],0.09
same,"Anti-CD28 Fab (SEQ ID NOs: 202, 203) signal",[5],1.89
RCSFRFITLAEACV [Phage-1130],Anti-CD28 Fab signal,[1],1.41
YCAGHAPQYMEKCL [Phage-312],Anti-CD28 Fab signal in the presence of CD28,[4],0.08
same,"Anti-CD28 Fab (SEQ ID NOs: 202, 203) signal",[5],1.9
"YCSGHLPQYLEKCL (on phage, pIII fusion) [Phage-567]",Anti-CD28 Fab signal in the presence of CD28,[2],0.31
same,"Anti-CD28 Fab (SEQ ID NOs: 202, 203) signal",[3],1.5
PCSAGVTYAWLYCV [Phage-1140],Anti-CD28 Fab signal,[1],1.41
"YCDGHSEQYIAKCL (on phage, pIII fusion) [Phage-572]",Anti-CD28 Fab signal in the presence of CD28,[2],0.08
same,"Anti-CD28 Fab (SEQ ID NOs: 202, 203) signal",[3],1.49
RCAAGFHYSWPNCF [Phage-1134],Anti-CD28 Fab signal,[1],1.41
"YCDGHAEEYMAKCL (on phage, pIII fusion) [Phage-588]",Anti-CD28 Fab signal in the presence of CD28,[2],0.06
same,"Anti-CD28 Fab (SEQ ID NOs: 202, 203) signal",[3],1.45
"YCEGHIMQYMAQCL (on phage, pIII fusion) [Phage-570]",Anti-CD28 Fab signal in the presence of CD28,[2],0.06
same,"Anti-CD28 Fab (SEQ ID NOs: 202, 203) signal",[3],1.49
TCSAGAHYPWPICL [Phage-1131],Anti-CD28 Fab signal,[1],1.41
LCAAGFMYEWPLCF [Phage-1143],Anti-CD28 Fab signal,[1],1.4
"YCEGHAVEYMAKCL (on phage, pIII fusion) [Phage-593]",Anti-CD28 Fab signal in the presence of CD28,[2],0.07
same,"Anti-CD28 Fab (SEQ ID NOs: 202, 203) signal",[3],1.44
MCTAGFSFNWPECL [Phage-1214],Anti-CD28 Fab signal,[1],1.05
LCAAGAHYSWPACF [Phage-1139],Anti-CD28 Fab signal,[1],1.41
PCAAGAMWPWPVCL [Phage-1136],Anti-CD28 Fab signal,[1],1.41
